Assay results published in patent publication US20120207760A1.

What was measured:
[1] = biological target: recombinant homotrimeric HA, A/Anhui/1/05 H5N1 (Influenza A virus A/Anhui/1/05 (H5N1)); test: trimeric HA microarray, transfection set 3
[2] = biological target: recombinant homotrimeric HA, A/California/4/09 H1N1 (Influenza A virus A/California/4/09 (H1N1)); test: trimeric HA microarray, transfection set 3
[3] = biological target: recombinant homotrimeric HA, A/Egypt/3300-NAMRU3/08 H5N1 (Influenza A virus A/Egypt/3300-NAMRU3/08 (H5N1)); test: trimeric HA microarray, transfection set 3
[4] = biological target: recombinant homotrimeric HA, A/Hong Kong/1073/99 H9N2 (Influenza A virus A/Hong Kong/1073/99 (H9N2)); test: trimeric HA microarray, transfection set 3
[5] = biological target: recombinant homotrimeric HA, A/Hong Kong/2108/03 H9N2 (Influenza A virus A/Hong Kong/2108/03 (H9N2)); test: trimeric HA microarray, transfection set 3
[6] = biological target: recombinant homotrimeric HA, A/Indonesia/5/05 H5N1 (Influenza A virus A/Indonesia/5/05 (H5N1)); test: trimeric HA microarray, transfection set 3
[7] = biological target: recombinant homotrimeric HA, A/Japan/305/57 H2N2 (Influenza A virus A/Japan/305/57 (H2N2)); test: trimeric HA microarray, transfection set 3
[8] = biological target: recombinant homotrimeric HA, A/Netherlands/219/03 H7N7 (Influenza A virus A/Netherlands/219/03 (H7N7)); test: trimeric HA microarray, transfection set 3
[9] = biological target: recombinant homotrimeric HA, A/Solomon Islands/3/06 H1N1 (Influenza A virus A/Solomon Islands/3/06 (H1N1)); test: trimeric HA microarray, transfection set 3
[10] = biological target: recombinant homotrimeric HA, A/South Carolina/1/18 H1N1 (Influenza A virus A/South Carolina/1/18 (H1N1)); test: trimeric HA microarray, transfection set 3
[11] = biological target: recombinant homotrimeric HA, A/Vietnam/1203/04 H5N1 (Influenza A virus A/Vietnam/1203/04 (H5N1)); test: trimeric HA microarray, transfection set 3
[12] = biological target: recombinant homotrimeric HA, A/Wisconsin/67/05 H3N2 (Influenza A virus A/Wisconsin/67/05 (H3N2)); test: trimeric HA microarray, transfection set 3
[13] = biological target: recombinant homotrimeric HA, A/chicken/Vietnam/NCVD-016/08 H5N1 (Influenza A virus A/chicken/Vietnam/NCVD-016/08 (H5N1)); test: trimeric HA microarray, transfection set 3
[14] = biological target: recombinant homotrimeric HA, A/common magpie/Hong Kong/5052/07 H5N1 (Influenza A virus A/common magpie/Hong Kong/5052/07 (H5N1)); test: trimeric HA microarray, transfection set 3
[15] = biological target: recombinant homotrimeric HA, A/duck/Yangzhou/02/05 H8N4 (Influenza A virus A/duck/Yangzhou/02/2005 (H8N4)); test: trimeric HA microarray, transfection set 3
[16] = biological target: recombinant homotrimeric HA, A/northern shoveler/California/HKWF115/07 (Influenza A virus A/northern shoveler/California/HKWF115/2007 (H6N1)); test: trimeric HA microarray, transfection set 3
[17] = biological target: recombinant homotrimeric HA, A/swine/Ontario/01911-2/99 H4N6 (Influenza A virus A/swine/Ontario/01911-2/99 (H4N6)); test: trimeric HA microarray, transfection set 3
[18] = biological target: recombinant homotrimeric HA, A/California/4/09 H1N1 (Influenza A virus A/California/4/09 (H1N1)); test: trimeric HA microarray, transfection set 4
[19] = biological target: recombinant homotrimeric HA, A/Indonesia/5/05 H5N1 (Influenza A virus A/Indonesia/5/05 (H5N1)); test: trimeric HA microarray, transfection set 4
[20] = biological target: recombinant homotrimeric HA, A/Japan/305/57 H2N2 (Influenza A virus A/Japan/305/57 (H2N2)); test: trimeric HA microarray, transfection set 4
[21] = biological target: recombinant homotrimeric HA, A/Solomon Islands/3/06 H1N1 (Influenza A virus A/Solomon Islands/3/06 (H1N1)); test: trimeric HA microarray, transfection set 4
[22] = biological target: recombinant homotrimeric HA, A/South Carolina/1/18 H1N1 (Influenza A virus A/South Carolina/1/18 (H1N1)); test: trimeric HA microarray, transfection set 4
[23] = biological target: recombinant homotrimeric HA, A/Vietnam/1203/04 H5N1 (Influenza A virus A/Vietnam/1203/04 (H5N1)); test: trimeric HA microarray, transfection set 4
[24] = biological target: recombinant homotrimeric HA, A/Wisconsin/67/05 H3N2 (Influenza A virus A/Wisconsin/67/05 (H3N2)); test: trimeric HA microarray, transfection set 4
[25] = biological target: recombinant homotrimeric HA, A/swine/Ontario/01911-2/99 H4N6 (Influenza A virus A/swine/Ontario/01911-2/99 (H4N6)); test: trimeric HA microarray, transfection set 4
[26] = biological target: recombinant soluble homotrimeric HA of A/Anhui/1/05 - H5N1 (Influenza A virus A/Anhui/1/2005 (H5N1)); test: micro-array; captured IgG, V5-tagged trimeric HA
[27] = biological target: recombinant soluble homotrimeric HA of A/Egypt/3300-NAMRU3/08 - H5N1 (Influenza A virus A/Egypt/3300-NAMRU3/2008 (H5N1)); test: micro-array; captured IgG, V5-tagged trimeric HA
[28] = biological target: recombinant soluble homotrimeric HA of A/Hong Kong/156/97 - H5N1 (Influenza A virus A/Hong Kong/156/97 (H5N1)); test: micro-array; captured IgG, V5-tagged trimeric HA
[29] = biological target: recombinant soluble homotrimeric HA of A/Netherlands/219/03 - H7N7 (Influenza A virus A/Netherlands/219/03 (H7N7)); test: micro-array; captured IgG, V5-tagged trimeric HA
[30] = biological target: recombinant soluble homotrimeric HA of A/chicken/Vietnam/NCVD-016/08 - H5N1 (Influenza A virus A/chicken/Vietnam/NCVD-016/2008 (H5N1)); test: micro-array; captured IgG, V5-tagged trimeric HA
[31] = biological target: recombinant soluble homotrimeric HA of A/duck/Yangzhou/02/2005 - H8N4 (Influenza A virus A/duck/Yangzhou/02/2005 (H8N4)); test: micro-array; captured IgG, V5-tagged trimeric HA
[32] = biological target: recombinant soluble homotrimeric HA of A/northern shoveler/California/HKWF115/2007 - H6N1 (Influenza A virus A/northern shoveler/California/HKWF115/2007 (H6N1)); test: micro-array; captured IgG, V5-tagged trimeric HA

TCN-202 (2N9) (antibody)
Trimeric HA Binding RLU [1]: 33 RLU | Trimeric HA Binding RLU [2]: 205 RLU | Trimeric HA Binding RLU [3]: 63 RLU | Trimeric HA Binding RLU [4]: 57 RLU | Trimeric HA Binding RLU [5]: 30 RLU | Trimeric HA Binding RLU [6]: 43 RLU | Trimeric HA Binding RLU [7]: 42 RLU | Trimeric HA Binding RLU [8]: 247 RLU | Trimeric HA Binding RLU [9]: 57 RLU | Trimeric HA Binding RLU [10]: 731 RLU | Trimeric HA Binding RLU [11]: 967 RLU | Trimeric HA Binding RLU [12]: 51 RLU | Trimeric HA Binding RLU [13]: 14 RLU | Trimeric HA Binding RLU [14]: 16 RLU | Trimeric HA Binding RLU [15]: 66 RLU | Trimeric HA Binding RLU [16]: 73 RLU | Trimeric HA Binding RLU [17]: 54 RLU | Trimeric HA Binding RLU [18]: 94 RLU | Trimeric HA Binding RLU [19]: 19 RLU | Trimeric HA Binding RLU [20]: 334 RLU | Trimeric HA Binding RLU [21]: 34 RLU | Trimeric HA Binding RLU [22]: 27 RLU | Trimeric HA Binding RLU [23]: 67 RLU | Trimeric HA Binding RLU [24]: 125 RLU | Trimeric HA Binding RLU [25]: 157 RLU | Trimeric HA Binding: RLU [26]: 10000 RLU | Trimeric HA Binding: RLU [27]: 13900 RLU | Trimeric HA Binding: RLU [28]: 945 RLU | Trimeric HA Binding: RLU [29]: 18000 RLU | Trimeric HA Binding: RLU [30]: 2570 RLU | Trimeric HA Binding: RLU [31]: 13800 RLU | Trimeric HA Binding: RLU [32]: 3040 RLU
